These results are taken from patent US20210040232A1 (Regeneron, published 2021).

Assay [1] addresses T1, soluble human CTLA-4 expressed with a C-terminal myc-myc-polyhistidine tag (human).
T1 construct: soluble protein; also called hCTLA-4.mmh; hCTLA4.mmh
Put plainly: SPR, mAb capture, 25 C. On the technique in general: In SPR one partner is held on a chip, and binding of the other changes the refractive index at the surface.

In assay [2] the target is T2, soluble Macaca fascicularis CTLA-4 expressed with a C-terminal myc-myc-polyhistidine tag (Macaca fascicularis).
T2 construct: soluble protein; also called mf CTLA-4.mmh; mfCTLA4.mmh
T2 chain: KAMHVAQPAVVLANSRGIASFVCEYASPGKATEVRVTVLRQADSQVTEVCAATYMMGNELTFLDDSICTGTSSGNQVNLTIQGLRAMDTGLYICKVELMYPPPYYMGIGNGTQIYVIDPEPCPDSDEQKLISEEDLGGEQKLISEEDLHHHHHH
Put plainly: SPR, mAb capture, 25 C.

For assay [3], the target named is T3, hCTLA-4 extracellular domain (aa 1-161) fused to the trans-membrane and cytoplasmic domain of hCD300a (aa … (human, UniProt Q9UGN4 181-299)). The assay is described as follows: cell-based or functional assay.
The target of assay [4] is T3, hCTLA-4 extracellular domain (aa 1-161) …. Put plainly: cell-based or functional assay. This is another data set of the same source.
The target of assay [5] is T4, human CTLA-4 (amino acids M1-N223) on stably transfected VI-fibroblast cells (human, UniProt P16410 36-223).
T4 construct: also called VI-fibroblast/hCTLA-4
The assay is described as follows: ECL cell binding, VI-fibroblast/hCTLA-4 cells.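 Note: antibodies bound to the cells on carbon electrode plates, detected via SULFO-TAG anti-IgG secondary (1 h, RT), electrochemiluminescence read as RLU over a concentration range.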

Assay [6] concerns the target T3, hCTLA-4 extracellular domain (aa 1-161) …. Put plainly: ECL cell binding, Jurkat/NFAT-Luc/hCTLA-4-hCD300a cells.
Assay [7] has as its target T5, recombinant hCTLA-4-mFc (human CTLA-4 extracellular domain with a C-terminal Fc portion of mouse IgG2a) (human).
T5 construct: also called dimeric CTLA-4 protein
Put plainly: competition ELISA, 200 pM hCTLA-4-mFc on plate-coated hB7-1-hIgG1-6His. In general terms: ELISA stands for enzyme-linked immunosorbent assay.

Assay [8] deals with T5, recombinant hCTLA-4-mFc (human CTLA-4 …). The assay is described as follows: competition ELISA, 400 pM hCTLA-4-mFc on plate-coated hB7-2-hIgG1-6His.
For assay [9] the target is unchanged. Put plainly: competition ELISA, 400 pM hCTLA-4-mFc on plate-coated hB7-2-hIgG1-6His; * value below theoretical bottom of assay.
In assay [10] the target is mf CTLA-4 extracellular domain (aa 1-161) fused to the trans-membrane and cytoplasmic domain of hCD300a (aa … (Macaca fascicularis; human, UniProt G7PL88 1-161; Q9UGN4 181-299). Put plainly: cell-based or functional assay.

T4 sequence (P16410 36-223 limits assumed): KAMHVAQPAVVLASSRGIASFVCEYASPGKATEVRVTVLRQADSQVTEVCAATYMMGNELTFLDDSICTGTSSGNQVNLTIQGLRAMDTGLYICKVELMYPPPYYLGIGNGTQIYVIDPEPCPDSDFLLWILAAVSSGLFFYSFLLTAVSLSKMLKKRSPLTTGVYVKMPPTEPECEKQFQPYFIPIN
T5 sequence (chain, as listed by the source limits assumed): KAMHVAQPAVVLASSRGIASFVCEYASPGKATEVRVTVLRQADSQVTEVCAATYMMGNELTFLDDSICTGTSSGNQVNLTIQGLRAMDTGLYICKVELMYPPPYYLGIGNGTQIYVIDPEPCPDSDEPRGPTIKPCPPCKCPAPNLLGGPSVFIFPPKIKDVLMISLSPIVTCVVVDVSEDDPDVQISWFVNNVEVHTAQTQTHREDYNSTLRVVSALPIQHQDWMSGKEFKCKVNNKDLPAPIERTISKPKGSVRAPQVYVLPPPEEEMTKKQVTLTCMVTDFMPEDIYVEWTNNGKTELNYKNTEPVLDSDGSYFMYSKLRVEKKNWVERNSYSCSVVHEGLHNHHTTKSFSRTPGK
T3 sequence (Q9UGN4 other isoform, or with tags, fused parts or gaps limits assumed, form in doubt): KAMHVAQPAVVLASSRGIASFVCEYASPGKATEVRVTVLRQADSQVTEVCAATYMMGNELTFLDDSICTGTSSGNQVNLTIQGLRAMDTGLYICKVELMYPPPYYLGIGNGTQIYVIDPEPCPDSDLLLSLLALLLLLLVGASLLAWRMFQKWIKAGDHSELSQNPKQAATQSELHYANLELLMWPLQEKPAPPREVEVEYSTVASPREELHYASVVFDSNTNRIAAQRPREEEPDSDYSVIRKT

B1: H1H19273P (antibody, human IgG1, V domains shown)
VH: QITLKESGPTLVKPTQTLTLTCTFSGFSLSTSGVGVGWIRQSPGRALEWLALIYWNDHERYSPSLKSRLTITKDTSKNLVVLAMANMDPVDTATYFCAHRNIEYRRSYFFDYWGQGTLVTVSS
VL: DIQMTQSPSSVSASVRDRVTVTCRASQDINNWLAWYQQKPGKAPKLLIYAASSLQSGVPSRFSGSGSGTDFTLTISSLQPEDFATYYCQQANTFPFTFGPGTKVDIK
The Kd is the concentration at which binding is half-saturated. Higher therefore signals weaker binding. A word on the koff: it is a measure of how fast the partners let go of each other. The low end stands for a long-lived complex, the high end for a short-lived complex. Broadly, the kon is the second-order rate constant of association. Read a low kon as slower complex formation. By EC50 is commonly meant the midpoint of the concentration-response curve. One may read the IC50 as the midpoint of a concentration-inhibition curve. In [1], B1 gave a dissociation constant (Kd) of 0.966 nM, an off-rate constant (koff) of 0.000362 s⁻¹, an association rate constant (kon) of 374000 M⁻¹ s⁻¹ and a t1/2 of 31.9 min. In assay [2], this molecule showed a Kd of 0.956 nM, an off-rate (koff) of 0.000346 s⁻¹, a kon of 362000 M⁻¹ s⁻¹ and a t1/2 of 33.4 min. In assay [3], the “EC50, T-cell/APC NFAT-luciferase assay, +Fc Block” value was 3.83 nM and the “EC50, T-cell/APC NFAT-luciferase assay, -Fc Block” value is 2.74 nM. In addition, in assay [4], the “EC50, T-cell/APC IL-2 release assay, APC HEK293/hCD20/hCD80” value (from here on “EC50, T-cell/APC IL-2 release assay”) was found to be 33.3 nM and the “Fold induction of IL-2 at 100 nM, APC HEK293/hCD20/hCD80” value (“Fold induction … APC HEK293/hCD20/hCD80” below) turned out to be 5.1 fold. For the same molecule, the “ratio of RLU signal to parental VI-fibroblast at 0.4 nM Ab” value (“ratio of RLU signal” for short) in [5] turned out to be 11 ratio. Besides, the EC50 in assay [6] stood at 0.52 nM. For the same molecule, in assay [7], the “% Blockade” value amounted to 98% and the IC50 is 0.25 nM. Further, in assay [8], the “% Blockade” value came out at 98% and the IC50 was determined as 0.54 nM.

B2: H1H19313P (antibody, human IgG1, V domains shown)
VH: QITLKESGPTLVKPTQTLTLTCTFSGFSLSTSGVGVGWIRQPPGVALEWLALIYWNDDKRFSPSLKSRLTITKDTSKNQVVLTMTNMDPVDTATYYCAHRRLGLYYFDYWGQGTLVTVSS
VL: DIQLTQSPSFLSASVGDRVTITCWASQGISSYLAWYQQKPGKAPKLLIYAASTLQSGVPSRFSGSGSGTEFTLTISSLQPEDFATYYCQQVHIYPFTFGPGTKVDIK
Consider B2, for which, in assay [1], the Kd is 1.55 nM, the koff worked out at 0.000758 s⁻¹, the on-rate (kon) came to 489000 M⁻¹ s⁻¹ and the t1/2 stood at 15.2 min. Also, in assay [2], the Kd stood at 0.976 nM, the koff came out at 0.000464 s⁻¹, the kon is 475000 M⁻¹ s⁻¹ and the t1/2 turned out to be 24.9 min. In addition, in assay [3], the “EC50, T-cell/APC NFAT-luciferase assay, +Fc Block” value turned out to be 3.47 nM and the “EC50, T-cell/APC NFAT-luciferase assay, -Fc Block” value was 1.69 nM. Besides, in assay [4], the “EC50, T-cell/APC IL-2 release assay” value was determined as 21.9 nM and the “Fold induction … APC HEK293/hCD20/hCD80” value was 5.7 fold. Further, in assay [5], the concentration for a half-maximal effect (EC50) stood at 0.16 nM and the “ratio of RLU signal” value is 11 ratio. In assay [6], this molecule returned a 50% effective concentration (EC50) of 0.11 nM. In assay [7], the “% Blockade” value is 98% and the half-inhibitory concentration (IC50) was 0.4 nM. For the same molecule, in assay [8], the “% Blockade” value is 99% and the 50% inhibitory concentration (IC50) was 0.77 nM.

B3: H1H19269P (antibody, human IgG1, V domains shown)
VH: EVQLVESGGGLVQPGGSLKLSCAASGFTFSGSAMHWVRQASGKGLEWVGRIRGKANSFATAYSASVKGRFTISRDDSKNTASLQMNSLRTEDTAVYFCTREDQQLVRPYYYHYGMDVWGQGTTVTVSS
VL: DIQMTQSPSSLSASVGDRVTITCRTSQSITNYLNWYQQKPGKAPKLLIYATASLQSGVPSRFSGSGSETDFTLTISSLQPEDFATYYCQQSYSTPLTFGGGTKVEIK
B3: in assay [1], the affinity, expressed as Kd, was 1.2 nM; the koff was determined as 0.000474 s⁻¹; the kon stood at 394000 M⁻¹ s⁻¹; the t1/2 came out at 24.4 min. Further, in assay [2], the affinity, expressed as Kd, was 1.22 nM; the dissociation rate constant (koff) was 0.000435 s⁻¹; the kon was 356000 M⁻¹ s⁻¹; the t1/2 is 26.6 min. For the same molecule, in assay [5], the half-maximal effective concentration (EC50) stood at 0.4 nM and the “ratio of RLU signal” value worked out at 15 ratio. In addition, in assay [7], the “% Blockade” value worked out at 98% and the IC50 was found to be 0.1 nM. Moreover, the “% Blockade” value in assay [8] was 100%. In addition, the half-maximal inhibitory concentration (IC50) in [9] came to 0.19 nM.

B4: H1H19319P2 (antibody, human IgG1, V domains shown)
VH: QVQLVESGGGEVQPGRSLRLSCAASGFTFSSYGMHWVRQAPGKGLEWVAVIWYDGRNKHYVDSVKGRFTISRDNSKNTVYLQMNSLRAEDSAVYYCVRGGQLGAFDYWGQGTLVTVSS
VL: not shown
Consider B4, for which, in assay [1], the Kd turned out to be 10.2 nM and the t1/2 worked out at 7.9 min. Moreover, in assay [2], the equilibrium dissociation constant (Kd) was 12.9 nM and the t1/2 was 4.4 min. Also, in assay [3], the “EC50, T-cell/APC NFAT-luciferase assay, +Fc Block” value amounted to 4.18 nM and the “EC50, T-cell/APC NFAT-luciferase assay, -Fc Block” value stood at 2.47 nM. Moreover, the concentration giving a half-maximal response (EC50) in assay [5] is 0.24 nM. In assay [6], this molecule returned a concentration for a half-maximal effect (EC50) of 0.28 nM. For the same molecule, in assay [7], the “% Blockade” value came out at 85% and the IC50 was determined as 320 nM. Further, in [8], the “% Blockade” value stood at 97% and the 50% inhibitory concentration (IC50) was 43 nM.

B5: H1H19291P (antibody, human IgG1, V domains shown)
VH: QVQLVESGGGVVQPGRSLRLSCAASGFTFSTYGMHWVRQAPGKGLEWVTVIWYDGNNKYYADSVKGRFTISRDNSKNTLYLQMNNLRAEDTALYYCARGGGRLSYYHDYWGQGTLVTVSS
VL: DIQMTQSPSSLSASVGDRVTITCRASQSISTFLNWYQQKPGKAPNLLIYGTSSLQSGVPSRFSGSGSGTDFTLTISSLQPEDFAAYYCQQTYSTPFTFGPGTKVDIK
In [1], B5 yielded an equilibrium dissociation constant (Kd) of 13.8 nM, a koff of 0.00123 s⁻¹, an association rate constant (kon) of 88800 M⁻¹ s⁻¹ and a t1/2 of 9.4 min. For the same molecule, in assay [2], binding was put at a Kd of 13 nM, the koff was 0.00121 s⁻¹, the on-rate (kon) was 93100 M⁻¹ s⁻¹ and the t1/2 amounted to 9.6 min. Further, in [3], the “EC50, T-cell/APC NFAT-luciferase assay, +Fc Block” value amounted to 3.92 nM and the “EC50, T-cell/APC NFAT-luciferase assay, -Fc Block” value was 2.36 nM. Besides, the “EC50, T-cell/APC NFAT-luciferase assay, +Fc Block” value in assay [10] was 7.67 nM. In assay [5], the “ratio of RLU signal” value was determined as 5 ratio. For the same molecule, in [7], the “% Blockade” value turned out to be 98% and the IC50 stood at 2 nM. Further, in [8], the “% Blockade” value stood at 99% and the IC50 amounted to 2.5 nM.

B6: H1H19327P2 (antibody, human IgG1, V domains shown)
VH: QVQLVESGGGVVQPGRSLRLSCAASGFTSSSYGIHWVRQAPGKGLEWVAVIWYDGSNKYYADSVKGRFTISRDNSKNTLYLQMNSLRAEDTAVYYCARGGPWGAFDIWGQGTMVTVSS
VL: not shown
As to B6, in assay [1], binding was characterised by a dissociation constant (Kd) of 66.3 nM, the koff came out at 0.000585 s⁻¹, the kon was 8810 M⁻¹ s⁻¹ and the t1/2 amounted to 19.8 min. In assay [2], this molecule showed a Kd of 62.4 nM, a koff of 0.0117 s⁻¹, a kon of 188000 M⁻¹ s⁻¹ and a t1/2 of 1 min. For the same molecule, in [3], the “EC50, T-cell/APC NFAT-luciferase assay, +Fc Block” value came to 5.49 nM and the “EC50, T-cell/APC NFAT-luciferase assay, -Fc Block” value came out at 4.2 nM. Further, the “EC50, T-cell/APC NFAT-luciferase assay, +Fc Block” value in [10] came out at 5.76 nM. Besides, in assay [5], the EC50 turned out to be 0.29 nM and the “ratio of RLU signal” value was 16 ratio. The “% Blockade” value in assay [7] was 7%. Further, in assay [8], the “% Blockade” value amounted to 38%.

B7: H1H19303P (antibody, human IgG1, kappa, V domains shown)
VH: EVQLVESGGGLVQPGGSLRLSCAASGFTFSNYEMSWVRQAPGKGLEWVSSIRTSGTTKYYADSMKGRFTISRDNAKNSLYLQMNSLRAEDTAVYYCAGGGTFLHYWGQGTLVTVSS
VL: DIQMTQSPSSVSASVGDRVTITCRASQGIASYLAWYQQKPGKAPKLLIYAASSLQTGVPSRFSGSGYGTDFTLTISSLQPEDFATYYCQQAKSFPMYTFGQGTKLEIKR
notes: also called REGN4659
In assay [1], B7 registered a Kd of 16.4 nM, a koff of 0.00199 s⁻¹, an association rate constant (kon) of 121000 M⁻¹ s⁻¹ and a t1/2 of 5.8 min. Moreover, in [2], the Kd is 15.7 nM, the koff is 0.00245 s⁻¹, the on-rate constant (kon) stood at 156000 M⁻¹ s⁻¹ and the t1/2 came to 4.7 min. For the same molecule, in assay [3], the “EC50, T-cell/APC NFAT-luciferase assay, +Fc Block” value was found to be 1.73 nM and the “EC50, T-cell/APC NFAT-luciferase assay, -Fc Block” value is 1.61 nM. In [4], the “EC50, T-cell/APC IL-2 release assay” value was found to be 40.9 nM and the “Fold induction … APC HEK293/hCD20/hCD80” value stood at 5.4 fold. In [5], the EC50 came out at 0.21 nM and the “ratio of RLU signal” value was found to be 20 ratio. In assay [6], this molecule gave an EC50 of 0.29 nM. Moreover, in assay [7], the “% Blockade” value turned out to be 90% and the IC50 worked out at 180 nM. Moreover, in [8], the “% Blockade” value was determined as 97% and the IC50 stood at 39 nM.
